Results taken from patent US20230024933.

T1: phosphoserine substrate peptide RRApSVA
T1 chain: RRASVA

T2: phosphotyrosine substrate peptide ENDpYINASL
T2 chain: ENDYINASL

B1: mutant EYA1A in which exon 10 had been removed (EYA1AΔe10) (protein)
chain: MLLFPQVAVKTEPMSSSETASTTADGSLNNFSGSAIGSSSFSPRPTHQFSPPQIYPSNRPYPHILPTPSSQTMAAYGQTQFTTGMQQATAYATYPQPGQPYGISSYGALWAGIKTEGGLSQSQSPGQTGFLSYGTSFSTPQPGQAPYSYQMQGSSFTTSSGIYTGNNSLTNSSGFNSSQQDYPSYPSFGQGQYAQYYNSSPYPAHYMTSSNTSPTTPSTNATYQLQEPPSGITSQAVTDPTAEYSTIHSPSTPIKDSDSDRLRRGSDGKSRGRGRRNNNPSPPPDSDLERVFIWDLDETIIVFHSLLTGSYANRYGRECDQVHIDDVSSDDNGQDLSTYNFGTDGFPAAATSANLCLATGVRGGVDWMRKLAFRYRRVKEIYNTYKNNVGGLLGPAKREAWLQLRAEIEALTDSWLTLALKALSLIHSRTNCVNILVTTTQLIPALAKVLLYGLGIVFPIENIYSATKIGKESCFERIIQRFGRKVVYVVIGDGVEEEQGAKKHAMPFWRISSHSDLMALHHALELEYL
B2: EYA1 isoform A (human splice variant EYA1A, exon 10 included) (protein)
chain: MLLFPQVAVKTEPMSSSETASTTADGSLNNFSGSAIGSSSFSPRPTHQFSPPQIYPSNRPYPHILPTPSSQTMAAYGQTQFTTGMQQATAYATYPQPGQPYGISSYGALWAGIKTEGGLSQSQSPGQTGFLSYGTSFSTPQPGQAPYSYQMQGSSFTTSSGIYTGNNSLTNSSGFNSSQQDYPSYPSFGQGQYAQYYNSSPYPAHYMTSSNTSPTTPSTNATYQLQEPPSGITSQAVTDPTAEYSTIHSPSTPIKDSDSDRLRRGSDGKSRGRGRRNNNPSPPPDSDLERVFIWDLDETIIVFHSLLTGSYANRYGRDPPTSVSLGLRMEEMIFNLADTHLFFNDLEECDQVHIDDVSSDDNGQDLSTYNFGTDGFPAAATSANLCLATGVRGGVDWMRKLAFRYRRVKEIYNTYKNNVGGLLGPAKREAWLQLRAEIEALTDSWLTLALKALSLIHSRTNCVNILVTTTQLIPALAKVLLYGLGIVFPIENIYSATKIGKESCFERIIQRFGRKVVYVVIGDGVEEEQGAKKHAMPFWRISSHSDLMALHHALELEYL

Tests used:
[1] = target: histone γH2A.X^pY142, endogenous in primary murine fibroblast cultures, P27661
[2] = target: T1, phosphoserine substrate peptide RRApSVA
[3] = target: T2, phosphotyrosine substrate peptide …

Protein | γH2A.X^pY142 foci per nucleus after NCS exposure [1] | serine phosphatase activity (dephosphorylation assay) [2] | tyrosine phosphatase activity (dephosphorylation assay with phosphorylated peptide) [3]
B1 | deletion of EYA1A critical exon 10 (EYA146e10) normalized premature γH2A.X^pY142 dephosphorylation and γH2A.X clearance | dephosphorylation assays using the synthetic serine phosphatase substrate RRApSVA demonstrated superior serine phosphatase activity | –
B2 | EYA1A overexpression induced premature γH2A.X^pY142 dephosphorylation and clearance of DSBs | – | confirmed increased tyrosine phosphatase activity of EYA1A
